Primed or numbered codes have the meaning given here. [ ]: non-standard residue; d: D form. α′‑methyl‑α′,β′‑epoxide = C-terminal α′-methyl-α′,β′-epoxyketone; hPhe = N[C@@H](CCc1ccccc1)C(=O)O; Nle = CCCC[C@H](N)C(=O)O
These binders were tested against proteasome in bovine aortic endothelial (BAE) cells (bovine) (assay: cell-based or functional assay).
With isooctanoyl-Pro-Phe-Leu-{α′,β′‑epoxide with α′‑methyl (epoxyketone)} (also: C-terminal Leu as α′,β′-epoxyketone (epoxide) with α′-methyl substituent) [Isooctanioc-PFL-Ex] the “IC50, inhibition of BAE cell proliferation” value was 600 nM.
With {N‑dimethylaminobenzoyl}-Pro-Phe-Leu-{α′,β′‑epoxide with α′‑methyl (epoxyketone)} (also: C-terminal Leu as α′,β′-epoxyketone (epoxide) with α′-methyl substituent) [N-dimethylaminobenzoyl-PFL-EX] the “IC50, inhibition of BAE cell proliferation” value was 400 nM.
For Ac-[Nle]PFL-{α′‑methyl‑α′,β′‑epoxide} [Ac-NorLPFL-Ex], the “IC50, inhibition of BAE cell proliferation” value was 53000 nM.
For Ac-GPFL-{α′‑methyl‑α′,β′‑epoxide} [Ac-GPFL-Ex], the “IC50, inhibition of BAE cell proliferation” value was 58000 nM.
In the case of pyrazinecarbonyl-Pro-Phe-Leu-{α′,β′‑epoxide with α′‑methyl (epoxyketone)} (also: C-terminal Leu as α′,β′-epoxyketone (epoxide) with α′-methyl substituent) [Pyrazinecarbonyl-PFL-Ex], the “IC50, inhibition of BAE cell proliferation” value is reported as 400 nM.

Molecular target: proteasome in bovine aortic endothelial (BAE) cells (bovine)
Experiment: cell-based or functional assay
Remark: another data set of the same source
With Ac-LALL-{α′‑methyl‑α′,β′‑epoxide} [Ac-LALL-epoxide] the “IC50, inhibition of BAE cell proliferation ([methyl-3H]-thymidine incorporation)” value was 700 nM.
Ac-LLFL-{α′‑methyl‑α′,β′‑epoxide} [Ac-LLFL-epoxide] was tested, and the “IC50, inhibition of BAE cell proliferation ([methyl-3H]-thymidine incorporation)” value was 7 nM.
For Ac-LLAL-{α′‑methyl‑α′,β′‑epoxide} [Ac-LLAL-epoxide], the “IC50, inhibition of BAE cell proliferation ([methyl-3H]-thymidine incorporation)” value was 34 nM.
Ac-ALLL-{α′‑methyl‑α′,β′‑epoxide} [Ac-ALLL-epoxide] was tested, and the “IC50, inhibition of BAE cell proliferation ([methyl-3H]-thymidine incorporation)” value was 83 nM.
For Ac-[hPhe]LFL-{α′‑methyl‑α′,β′‑epoxide} [compound 16], the “IC50, inhibition of BAE cell proliferation ([methyl-3H]-thymidine incorporation)” value was 20 nM.
For Ac-LFLL-{α′‑methyl‑α′,β′‑epoxide} [Ac-LFLL-epoxide], the “IC50, inhibition of BAE cell proliferation ([methyl-3H]-thymidine incorporation)” value was 16 nM.

— US20040266664A1 (YALE UNIVERSITY, published 2004)
